Molecular target: T1, reporter peptide (Example 9, TEV) (not fully specified)
T1 chain: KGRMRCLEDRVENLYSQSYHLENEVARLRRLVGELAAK

B1: TEV (Tobacco Etch Virus) protease (protein)
chain: GESLFKGPRDYNPISSTICHLTNESDGHTTSLYGIGFGPFIITNKHLFRRNNGTLLVQSLHGVFKVKNTTTLQQHLIDGRDMIIIRMPKDFPPFPQKLKFREPQREERICLVTTNFQTKSMSSMVSDTSCTFPSSDGIFWKHWIQTKDGQCGSPLVSTRDGFIVGIHSASNFTNTNNYFTSVPKNFMELLTNQEAQQWVSGWRLNADSVLWGGHKVFMSKPEEPFQPVKEATQLMNELVYSQ
B1 was tested, and the “Km of TEV protease by FP analysis” value was 36 µM and the “Km of TEV protease by FRET analysis” value was 36 µM.
